Read-outs that look alike come from different tables or passages of the source.
What was measured:
[1] = molecular target: hexon protein on the viral capsid of Ad5 vectors with SpyTag inserted into HVR loops (loop not specified); assay: covalent coupling of SpyCatcher to virions, SDS-PAGE band densitometry (ImageJ)
Ad5-HVR5-DogTag Hexon [2] = molecular target: T1, Ad5-HVR5-DogTag Hexon (human adenovirus serotype 5 (Ad5), UniProt P04133 21-952)
T1 construct: also called HVR5DT; Ad5(GFP) HVR5 DogTag

Ad5-HVR1-DogTag Hexon = molecular target: T2, Ad5-HVR1-DogTag Hexon (human adenovirus serotype 5 (Ad5), UniProt P04133 2-952)
T2 construct: also called HVR1DT; hexon-DogTag

Ad5-HVR2-DogTag Hexon = molecular target: T3, Ad5-HVR2-DogTag Hexon (human adenovirus serotype 5 (Ad5), UniProt P04133 30-952)
T3 construct: also called HVR2DT; hexon-DogTag

Ad5-HVR5-DogTag Hexon [3] = molecular target: T1, Ad5-HVR5-DogTag Hexon; remark: listed apart in the source
Ad5-HVR5-DogTag Hexon [4] = molecular target: T1, Ad5-HVR5-DogTag Hexon; remark: listed apart in the source

## SpyCatcher (designed binder)
[1]
  % of hexon protein coupled: > 50%

B1: Biotin-SnoopTagJr (peptide)
peptide: GKLGSIEFIKVNK
modifications: N-terminal biotin
notes: also called SnJr-biotin; Biotinylated SnJr-peptide
Ad5-HVR5-DogTag Hexon [2]
  binding result: binds

B2: DogCatcher (designed binder)
chain: MGSSHHHHHHSSGLVPRGSHMKLGDIEFIKVNKNDKKPLRGAVFSLQKQHPDYPDIYGAIDQNGTYQNVRTGEDGKLTFKNLSDGKYRLFENSEPAGYKPVQNKPIVAFQIVNGEVRDVTSIVPQ
notes: His-tagged DogCatcher expressed in E. coli; forms a spontaneous isopeptide bond with DogTag; also called DC; RrgACatcher
Ad5-HVR1-DogTag Hexon
  coverage of capsid hexon (%): > 90%
Ad5-HVR2-DogTag Hexon
  coverage of capsid hexon (%): > 90%
Ad5-HVR5-DogTag Hexon [3]
  coverage of capsid hexon (%): > 90%

B3: DogCatcher-NANP18 (other)
chain: MAHHHHHHVGTGKLGDIEFIKVNKNDKKPLRGAVFSLQKQHPDYPDIYGAIDQNGTYQNVRTGEDGKLTFKNLSDGKYRLFENSEPAGYKPVQNKPIVAFQIVNGEVRDVTSIVPQGSGGSGGSNANPNANPNANPNANPNANPNANPNANPNANPNANPNANPNANPNANPNANPNANPNANPNANPNANPNANP
notes: also called DC-NANP18
Ad5-HVR5-DogTag Hexon [4]
  binding result: binds

B4: DogCatcher-NANP Domain (other)
chain: MAHHHHHHVGTGKLGDIEFIKVNKNDKKPLRGAVFSLQKQHPDYPDIYGAIDQNGTYQNVRTGEDGKLTFKNLSDGKYRLFENSEPAGYKPVQNKPIVAFQIVNGEVRDVTSIVPQGSGGSGGSNANPNVDPNANPNVDPNANPNVDPNANPNANPNANPNANPNANPNANPNANPNANPNANPNANPNANPNANPNANPNANPNANPNANPNANPNVDPNANPNANPNANPNANPNANPNANPNANPNANPNANPNANPNANPNANPNANPNANPNANPNANPNANPNANP
Ad5-HVR5-DogTag Hexon [4]
  binding result: binds

B5: DogCatcher-NANP9 (other)
chain: MAHHHHHHVGTGKLGDIEFIKVNKNDKKPLRGAVFSLQKQHPDYPDIYGAIDQNGTYQNVRTGEDGKLTFKNLSDGKYRLFENSEPAGYKPVQNKPIVAFQIVNGEVRDVTSIVPQGSGGSGGSNANPNANPNANPNANPNANPNANPNANPNANPNANP
Ad5-HVR5-DogTag Hexon [4]
  binding result: binds
